Experiments:
[1] = target: TSHR260-alkaline phosphatase (TSHR260-AP) (human) (UniProt P05187); experiment: TSHR260-AP bridge ELISA, full length TSHR on wells; 0.1 µg/mL, diluted in assay buffer
[2] = target: TSHR260-alkaline phosphatase (TSHR260-AP) (human) (UniProt P05187); experiment: TSHR260-AP bridge ELISA, full length TSHR on wells; 10 µg/mL, diluted in HBD
[3] = target: TSHR260-alkaline phosphatase (TSHR260-AP) (human) (UniProt P05187); experiment: TSHR260-AP bridge ELISA, full length TSHR on wells; 250 µg/mL, diluted in assay buffer
[4] = target: TSHR260-alkaline phosphatase (TSHR260-AP) (human) (UniProt P05187); experiment: TSHR260-AP bridge ELISA, full length TSHR on wells; 250 µg/mL, diluted in HBD
[5] = target: TSHR260-alkaline phosphatase (TSHR260-AP) (human) (UniProt P05187); experiment: TSHR260-AP bridge ELISA, full length TSHR on wells; 0.005 µg/mL, diluted in assay buffer
[6] = target: TSHR260-alkaline phosphatase (TSHR260-AP) (human) (UniProt P05187); experiment: TSHR260-AP bridge ELISA, full length TSHR on wells; 0.005 µg/mL, diluted in HBD
[7] = target: TSHR260-alkaline phosphatase (TSHR260-AP) (human) (UniProt P05187); experiment: TSHR260-AP bridge ELISA, full length TSHR on wells; 10 µg/mL, diluted in assay buffer
[8] = target: TSHR260-alkaline phosphatase (TSHR260-AP) (human) (UniProt P05187); experiment: TSHR260-AP bridge ELISA, full length TSHR on wells; 0.1 µg/mL, diluted in HBD

Mean absorbance at 405 nm (absorbance at 405 nm) [1]: -0.009 | Mean absorbance at 405 nm (absorbance at 405 nm) [2]: -0.008 | Mean absorbance at 405 nm (absorbance at 405 nm) [3]: 0.204 | Mean absorbance at 405 nm (absorbance at 405 nm) [4]: -0.008 | Mean absorbance at 405 nm (absorbance at 405 nm) [5]: 0 | Mean absorbance at 405 nm (absorbance at 405 nm) [6]: -0.012 | Mean absorbance at 405 nm (absorbance at 405 nm) [7]: 0.016 | Mean absorbance at 405 nm (absorbance at 405 nm) [8]: -0.009
Substance: 5C9 Fab
